Here are results for two compounds from publication PMC5346638, “Azadiradione ameliorates polyglutamine expansion disease in Drosophila by potentiating DNA binding activity of heat shock factor 1” (Oncotarget, 2016).

pKd: −log10 of the molar value.

Data set [1] deals with T1, heat shock factor 1 (HSF1) (Homo sapiens, UniProt Q00613).
T1 construct: purified full length HSF1, N-terminal his6 tag, expressed in E. coli
T1 sequence (Q00613 1-529): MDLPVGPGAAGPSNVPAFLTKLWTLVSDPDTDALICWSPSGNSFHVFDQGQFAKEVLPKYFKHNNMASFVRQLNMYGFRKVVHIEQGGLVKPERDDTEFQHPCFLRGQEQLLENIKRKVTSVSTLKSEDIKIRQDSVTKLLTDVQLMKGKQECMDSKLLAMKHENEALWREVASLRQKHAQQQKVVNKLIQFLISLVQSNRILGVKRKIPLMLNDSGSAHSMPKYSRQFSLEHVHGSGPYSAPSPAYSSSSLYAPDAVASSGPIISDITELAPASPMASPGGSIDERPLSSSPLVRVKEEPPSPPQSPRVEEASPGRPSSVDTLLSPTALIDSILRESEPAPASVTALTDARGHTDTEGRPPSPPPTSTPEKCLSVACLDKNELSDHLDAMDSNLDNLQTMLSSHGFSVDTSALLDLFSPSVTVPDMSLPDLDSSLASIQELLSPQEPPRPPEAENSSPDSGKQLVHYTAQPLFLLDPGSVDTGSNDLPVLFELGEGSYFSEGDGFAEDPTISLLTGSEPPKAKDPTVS
Nature of the data set: intrinsic tryptophan fluorescence titration, Scatchard plot; supported by EMSA, CD, light scattering. Type of data set: binding.

In data set [2] the test system is his6-HSF1 (codon-optimized) (Homo sapiens). Nature of the data set: tryptophan fluorescence quenching. The settings on record: room temperature, Fluorescence: 2 uM HSF1, 0-10 uM HSE, buffer not given, EMSA: 0.5 uM protein or 50 ug WCE, 1 ng 32P-HSE, buffer per cited reference, 4% PAGE. Background: A gel shift assay detects complexes by their altered migration in electrophoresis.

The test system is the same in data set [3]. The data set can be described thus: EMSA. The settings on record: Fluorescence: 2 uM HSF1, 0-10 uM HSE, room temperature, buffer not given; EMSA: 0.5 uM protein or 50 ug WCE, 1 ng 32P-HSE, buffer per cited reference, 4% PAGE.

Broadly, the pKd is the Kd on a negative log10 scale, so that one unit is a factor of ten. A low value points to a high Kd. `CC(=O)O[C@@H]1C[C@H]2C(C)(C)C(=O)C=C[C@]2(C)[C@H]2CC[C@]3(C)C(=CC(=O)[C@H]3c3ccoc3)[C@@]21C` [AZD, azadiradione] gave a pKd in data set [1] of 5.87.

As to HSE (proximal HSE of hsp70A1A promoter), the pKd was 6.46 in data set [2] (5 uM azadiradione) and 6.10 in data set [2] (no AZD). Moreover, the binding signal (fold affinity increase with AZD) in data set [3] is > 2.
